# The DeepSol protein solubility set
# Assay: soluble on expression in E. coli; label from the status in PepcDB or PDB records
row,Sequence,soluble on expression in E. coli
1,ASQPLIQDPVLIEYINHLGNSLVKNAQGVNYAFEFFLINNNELNAFAFFGGHVGIHSGLITTADTESELASVIAHEISHVTQRHLARRLESQSQTQGLTMAAMLSSVLITLVNPTVGIAALSASMAVTQQASINYTRGNEKEADRVGIALLASSNYDPQGAASFFSKMSTKYRYASKPPAMLLTHPLPESRIADARQRALNYPARPLPPSLGFELTKARLKSRYQGEAKSNISFFKLQLEKKRYAIKAAAQYGLALSYFENKQTSEALQLLEMLEKNDKDNLFYVDALTDVYIANNQANKAIKMLERLNLFMPNNQVVSLNYANALLSVKEYDLAAQILQDFLLVNPGNFIAYDILTTLYRTQEKTGLMHMSKAEVYALLGAYPKAVDELQTSYAFLDEQPLMQK,not soluble
2,ATDVIAQRKAILKQMGEATKPIAAMLKGEAKWDQAVVQKSLAAIADDSKKLPALFPADSKTGGDTAALPKIFEDKAKFDDLFAKLAAAATAAQGTIKDEASLKANIGGVLGNCKSCHDDFRAKKS,soluble
3,ATGAAAAAATCAATCCTCAAATCTGTGTTAGCGTCTTCTATTACGCTTTCTATCACGCTAAGCAGCACTGCTTTCGCCTCTCCTATCGTGACACCAGACGCACCACAAATTGCCGCTAAAGGCTATGTACTGATGGATTACCATTCAGGAAAAGTGTTGGCTGAAAAAGAGATGGATACCAAACTCTCTCCTGCCAGCCTAACCAAGATGATGACCAGTTACGTGATCGGTCAAGAAGTAAAGCGTGGCAACATCTCGCTAAATGACGATGTCGTGATCAGCAAAAATGCTTGGGCGAAAAACTTCCCTGATTCTTCGAAAATGTTCGTTGAAGTCGGTACCACGGTTAAGGTCAGCGATCTCAACCGCGGCATCATCATCCAATCGGGTAATGATGCGTGTGTAGCGATGGCAGAGCACGTCGCAGGGACGGAAGATGCGTTTGTTGACCTGATGAACGCTTGGGCAAGCTCACTTGGGATGAAGAATTCGCACTTCACTAACTCTCACGGTTTGGACGATCCTAATCTTTACTCTACGCCATACGATCTGGCTCTACTTGGCCAAGCTCTGATCCGTGAWGTGCCTGAAGAGTACGCGATCTACTCCGAGCAAAAATTCACCTACAACGGCATCACTCAATACAACCGTAACGGTTTGCTTTGGGATAAAAGCATGAATGTGGACGGCATTAAAACCGGACATACGAGTGGTGCTGGCTATAACCTCGTGAGCTCTGCTACAGAAGGCAACATGCGCTTGGTTGCGGTGGTGATGGGTACTGACAACGAAAACGCGCGTAAAGCGGAAAGTAAGAAGCTACTGAGCTACGGTTTCCGCTTCTTTGAAACCGTGGCACCACACAAAGCGGGTGAAACTTTCGTGAATGAAACCATCTGGATGGGCGATAAAGACACGATTGCACTCGGTGTTGATAAAGATACTTACGTAACTTTGCCACGCGGACAGGCCAAAGATCTCACCGCCAGCTTTGTACTTGAAAAACAATTGAAAGCACCGCTGAAGAAAGGCGATATCGTCGGCACACTTTACTATCAATTAGCTGGTAACGATATTGCTCAATACCCATTGCTCGCACTGGAAGATGTGCAAGAAGGCAGCCTATTTAGCCGCCTATGGGATTACTTGGTTCTGCTGTTCAAAAGCTGGTTTTAA,not soluble
4,ATHEVHMLNKGESGAMVFEPAFVRAEPGDVINFVPTDKSHNVEAIKEILPEGVESFKSKINESYTLTVTEPGLYGVKCTPHFGMGMVGLVQVGDAPENLDAAKTAKMPKKARERMDAELAQVN,soluble
5,ATMPLSPLLTAVIETTLNTLINDDPALGRKLLRLKGKVISLHLRELNQSLTFVFSQRIDVMTGFEGQPDCYLALNLSILPQLREQANITQLIKQDKLELEGDIQLAQKFSELMTDCKPDVEEWLSRITGDVVAHSVVHGVKSIVGALKQQAHKHQNHLAQVLTEEWRIAPPPLEIAYFCDQVDDVKSHAARLEARLNQLLEKA,not soluble
6,ATRVQAAQKEPASDVSDKLEQIREEIAKDPQSVFKYITISPVKKDDAIIGYRVSPGRDAALFNDVGLEPGDIAVQLNGIDLSDPSSSVQLMQVMSDPQELNLTVERDGQQYDIYIQL,not soluble
7,AVANATELVNKISENCFEKCLTSPYATRNDACIDQCLAKYMRSWNVISKAYISRIQNASASGEI,soluble
8,AVQRAKEVLEEISCYPENNDAKELKRILTQPHFMALLQTHDVVAHEVYSD,soluble
9,AVSGIRQSLISRKALTLFKTVLPAMSQTEKEALDAGTVWWEAELFKGKPEWEKLHAIQAPKLSAEERAFLDGPVNEVCAMVSDFQVTHELADLPPEVWQYLKDNKFFAMIIK,not soluble
10,AYTTFSQTKNDQLKEPMFFGQPVNVARYDQQKYDIFEKLIEKQLSFFWRPEEVDVSRDRIDYQALPEHEKHIFISNLKYQTLLDSIQGRSPNVALLPLISIPELETWVETWAFSETIHSRSFTHIIRNIVNDPSVVFDDIVTNEQIQKRAEGISSYYDELIEMTSYWHLLGEGTHTVNGKTVTVSLRELKKKLYLCLMSVNALEAIRAYVSFACSFAFAERELMEGNAKIIRLIARDEALHLTGTQHMLNLLRSGADDPEMAEIAEECKQECYDLFVQAAQQEKDWADYLFRDGSMIGLNKDILCQYVEYITNIRMQAVGLDLPFQTRSNPIPWINTWLVSDNVQVAPQEVEVSSYLVGQIDSEVDTDDLSNFQL,soluble
11,CGPQYRFVWKGGEGGIGDAANALDSGKIIAIKGIGGYHIACLTEDDVVLRLRKLLNRPQQPFAVMVRDLSSAERVAELSNEERAELLSPARPIVVVRKKLPFEAVAPELDTIGIMLPYTPLHHLLFQELKADYLVMTSANLPGEPMYIDESIMEKMELDGFLVHNLEIANRVDDSVVKYVGGRRLLIRRSRGFVPQPIKIDIGFN,not soluble
12,CQDYIPVKDQKVVDLMSRDVVAIDASDRLVDVVEFLCIDKEQLYPTSSMGIATRLTSLSLEERAKSMKVSKPQVLPVLENGQMVGVVTRQEVLKALRPVFGERLNLVEDKALETA,not soluble
13,DAETFHKDELDLAYDRISQQFDTDMGGMNKAPKFPMPSIYLYLLRDYALTGRQGSLQHVELTLDKMAMGGIYDTIGGGFARYSVDGAWFAPHFEKMLYDNGQLLSLYSEAYTVTKKPLYKEVIEETYTWLKREMLSPEGGFYSALDADSEGVEGKFYCWQYEELAQLIQEDFALFCAYYAITENGNWEHGMNILYKRMSDEAFAAAHSISAEALRESVSRWKNILFSERDPREHPGLDDKILASWNGIMLKGLCDAYRILGDAAILNTALMNAEFILTKLYDGKTLFHSYKNKKATIPGFLEDYTHVIDGYLALYEVSLDEQWLRQAITLVNHVIDHFYDDDEGLFFYTSRTSEKLIARKKEIFD,not soluble
14,DALAVALLQARGFSAEDFALSHPGGALGRKLLLKLSDIMHFGNALPKVSPDALIRDALLEISEKGLGMTAIVDEHDAMLGIFTDGDLRRTLDKRIDIHTTAIGEVMTKNPTTAHPEMLAVEGLNLMQNKNINALILCKEDKIVGALNMHDLLKAGVM,not soluble
15,DDAAIKRKLQSFNISNIVIKSSPISGIKTAVTDQGILYVSEDGKYLFEGKLYELTNNGPVDVAGKILVDKLNSYKDEMIVYPAKNEKHVVTVFMDITCHYCHLLHQQLKEYNDLGITVRYLAFPRAGMNNQTAKQMEAIWTAKDPVFALNEAEKGNLPKEVKTPNIVKKHYELGIQFGVRGTPSIVTSTGELIGGYLKPADLLRALEETAQ,soluble
16,DDGSNEDTKQALSALSEQGLIKLISLSENQGKGGAVMAGLHQAHQLGFTHTIQIDADGQHDLEALPKLLSASETKPDNLISGQPIYDESVPKARLYGRYATHIWVWIETLSLSIKDSMCGFRAYPVAKTVAVLNKYNIGKRMDFDIEILVRMYWEGVDIDFVPTRVIYPEGGISHFDALWDNVKISWMHTRLFFGMLPRIPSLLARKRRHTDDSNAHWSKRKEQGTILGIKTLLAVYRLFGRKAFDLILKLVMRYYHFTGKSAREASEIYLQNLQRYAAQQNIALPKQLDSYHHLLSFGRTMLDKLAAWQGDFNVDNLTIHGQHHFEEMAQKKQGVLILGSHLGNIELCRALGRRHSHVKINALVFTQHAEQFNAVMKAVNPNSELNLIQVSSMGPDTAILLQQKIEQGEWVVIVGDRTSTSKENRVVWADFLGKPAPFPQGP,not soluble
17,DEETKAFEALLSNIVKPVASDIQARTVVLTWSPPSSLINGETDESSVPELYGYEVLISSTGKDGKYKSVYVGEETNITLNDLKPAMDYHAKVQAEYNSIKGTPSEAEIFTTLSCEPDIPNPPRI,soluble
18,DETIHLERGENLFEIHINKVTFSSEVLQASGDKEPVTFCTYAFYDFELQTTPVVRGLHPEYNFTSQYLVHVNDLFLQYIQKNTITLEVHQAYSTEYETIAACQLKFHEILEKSGRIFCTASLIGTKGDIPNFGTVEYWFRLRV,soluble
19,DGTLVVDIDGCISHANPAAETLLAGPEESLVGQQVEAVIPTWDSLTVDDEQADWSELALSVDGQQRFVELEVTPFADRF,not soluble
20,DGYWYGDYYGVMSFGVNTDLVQEVPKSWEALLDSQYANAFALAGDPRASNQAILAVMSAGIADGTEPGEASGKKGLEFFGKLNKAGGFVPVIGKAGTIAQGQTPIVAAWDYNLLSWRDELKGNPPMEVVIPEGPSLAGVYVQAISAFAPHPNAAKLWMEYLYS,not soluble
21,DHWLRQDLRQMFIEELGSNAREIIQFVVGSHDIGKATPLFQYQKAQKGEVWDSIRYAIDRTGRYQKPLPSSYLVKKTSGGPNRHEQWSSFASKNEYLKPSAAAKENWIGLAIGGHHGRFEPVGYGRHQRKAAEDLAKSGWSAAQQDLLRALEKASGITRASLPSELSPELTLVLSGLTILADRISSTESFVITGARMIDDGTLHLATPIDWLKTRKLDSEKHVAKTVGIYHGWNNHESAIHSILKGYDPRPLQTIALQNQVGLLNLMAPTGNGKTEAAILRHSLKENDRLIFLLPTQATSNAIMRRVQGIYSDTPNVAALAHSLASVEDFYQTPLSVFDDHYDPSKEQFESSMSG,not soluble
22,DIMVVVDAGHGGKDPGAVGSRGEREKDVVLSIAQLLAKRLKREKGFDVRLVRNDDFFVPLRKRVEFAHKSNADMFISVHADAAPRLTASGASVFALSEGGATSATARFMAQRENGADLLGATSLLNLKDKDPMLAGVILDMSMNATIAASLQLGHTILGSLEGITTLHQKRVEQAGFAVLKSPDVPSILVETGFISNSRDSQRLVTARHQQAVADGLFDGLQRYFQRNPPMDSHLAWMQAQKQEQQA,not soluble
23,DIVLTQSPATLSVTPGNSVSLSCRASQSIGNNLHWYQQKSHESPRLLIKYASQSISGIPSRFSGSGSGTDFTLSINSVETEDFGMYFCQQSNSWPYTFGGGTKLEITGGGGSGGGGSGGGGSDIQLQESGPSLVKPSQTLSLTCSVTGDSITSDYWSWIRKFPGNRLEYMGYVSYSGSTYYNPSLKSRISITRDTSKNQYYLDLNSVTTEDTATYYCANWDGDYWGQGTLVTVSAAHHHHHH,soluble
24,DKDVLEVKLDKKEYKAGETATALIQSPYADAELYFAVIKDKPIYQQITKVQGSAPQIQFRVTPEMLPNAAVEAVLVRQGKPINQVEVGSLDNLVKIGFTPFKVNLEDKYLKLQVKPAQASLEPGAEETIQLEVKDNQGNPTKGQLTVMVVNEAVLQLSGY,not soluble
25,DKSRIAHMIDEWDGKEIIYPDDLVFTTMGEDTVKWFLKDSRYTIVTYADSIGCMGCKLKLPVWKDFISYLDSVSDHTVKVIFILHPRDKKEMVHLLEYNDFSYPVCLDIKGSFDKINKIPSNLAFQTFLLDNRNKVIAIGNPIHNPNVRTLYLNLILSDSICKS,not soluble
26,DLVIIVDDERRIVDVNAAATALFDGDQNTLLGRSLPQASPTLAETVPGPGERTQTETALERDGSVRYYDVRVIPLYRAYGVVSGHLISLRD,not soluble
